# In IntAct's records for PubMed 14596919:
# B1: Disabled homolog 2 (Mus musculus), P98078 (parent)
# chain: MSNEVETSTTNGQPDQQAAPKAPSKKEKKKGSEKTDEYLLARFKGDGVKYKAKLIGIDDVPDARGDKMSQDSMMKLKGMAAAGRSQGQHKQRIWVNISLSGIKIIDEKTGVIEHEHPVNKISFIARDVTDNRAFGYVCGGEGQHQFFAIKTGQQAEPLVVDLKDLFQVIYNVKKKEEDKKKVEEANKAEENGSEALMTLDDQANKLKLGVDQMDLFGDMSTPPDLNSPTESKDILLVDLNSEIDTNQNSLRENPFLTNGVTSCSLPRPKPQASFLPENAFSANLNFFPTPNPDPFRDDPFAQPDQSAPSSFDSLTSPDQKKASLSSSSTPQSKGPLNGDTDYFGQQFDQLSNRTGKPEAQGGPWPYPSSQTQQAVRTQNGVSEREQNGFHIKSSPNPFVGSPPKGLSVPNGVKQDLESSVQSSAHDSIAIIPPPQSTKPGRGRRTAKSSANDLLASDIFASEPPGQMSPTGQPAVPQSNFLDLFKGNAPAPVGPLVGLGTVPVTPPQAGPWTPVVYSPSTTVVPGAIISGQPPSFRQPLVFGTTPAVQVWNQSPSFATPASPPPPTVWCPTTSVAPNAWSSTSPLGNPFQSNNIFPPPTMSTQSSPQPMMSSVLATPPQPPPRNGPLKDIPSDAFTGLDPLGDKEVKEVKEMFKDFQLRQPPLVPSRKGETPPSGTSSAFSSYFNNKVGIPQEHVDHDDFDANQLLNKINEPPKPAPRQGVLLGTKSADNSLENPFSKGFSSSNPSVVSQPASSDPHRSPFGNPFA
# Variants of: B1
# Conditions: with sh3k1_human SH3KBP1, Q96B97
# sh3k1_human SH3KBP1, Q96B97, sequence (Q96B97 whole entry): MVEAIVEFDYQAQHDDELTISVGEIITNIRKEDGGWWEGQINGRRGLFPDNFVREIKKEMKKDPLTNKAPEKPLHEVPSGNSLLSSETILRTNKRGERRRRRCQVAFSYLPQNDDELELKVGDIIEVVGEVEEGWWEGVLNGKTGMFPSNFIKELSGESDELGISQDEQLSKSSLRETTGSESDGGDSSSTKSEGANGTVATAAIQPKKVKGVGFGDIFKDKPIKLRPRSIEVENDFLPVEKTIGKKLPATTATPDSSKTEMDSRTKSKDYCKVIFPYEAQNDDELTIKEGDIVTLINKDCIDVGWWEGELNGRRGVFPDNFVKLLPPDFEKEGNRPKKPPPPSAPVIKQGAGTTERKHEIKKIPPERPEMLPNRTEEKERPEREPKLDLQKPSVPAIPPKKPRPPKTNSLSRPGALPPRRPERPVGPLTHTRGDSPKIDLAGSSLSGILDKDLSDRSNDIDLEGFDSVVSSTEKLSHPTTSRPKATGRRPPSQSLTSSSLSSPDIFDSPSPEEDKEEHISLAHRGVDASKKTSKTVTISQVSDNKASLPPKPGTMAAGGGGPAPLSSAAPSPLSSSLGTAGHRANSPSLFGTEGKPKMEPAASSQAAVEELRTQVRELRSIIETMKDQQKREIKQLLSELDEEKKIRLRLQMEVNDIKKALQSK
row,effect of a mutation on the interaction,Variant
1,disrupting interaction,R718A

# Variants of: B1
# Conditions: with sh3k1_human SH3KBP1, Q96B97
# Remark: another data set of the same source
row,effect of a mutation on the interaction,Variant
1,decreasing interaction,R718A
